Test [1] has as its target T1, recombinant human Trop-2 (Sino Biological, Cat. No: 10428-H08H) (human, UniProt P09758 27-274).
T1 construct: Coated on the ELISA plate
T1 sequence (looked up): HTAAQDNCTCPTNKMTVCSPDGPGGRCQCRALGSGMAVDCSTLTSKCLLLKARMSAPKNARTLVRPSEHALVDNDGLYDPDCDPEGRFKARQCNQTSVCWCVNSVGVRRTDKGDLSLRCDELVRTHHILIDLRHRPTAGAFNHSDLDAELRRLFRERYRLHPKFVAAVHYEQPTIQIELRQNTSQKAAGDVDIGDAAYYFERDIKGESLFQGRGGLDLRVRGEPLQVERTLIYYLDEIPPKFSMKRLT
The test can be described thus: ELISA, recombinant human Trop-2 coated at 1 ug/mL, anti-human IgG-HRP. (In an ELISA, binding on a coated surface is turned into a signal by an enzyme label.)

In the next test the target is T2, Trop-2 on BxPC3 cells (UniProt P09758 27-323, limits assumed).
T2 construct: whole, on cells; also called BxPC3 cells with high expression Trop-2
T2 sequence (looked up): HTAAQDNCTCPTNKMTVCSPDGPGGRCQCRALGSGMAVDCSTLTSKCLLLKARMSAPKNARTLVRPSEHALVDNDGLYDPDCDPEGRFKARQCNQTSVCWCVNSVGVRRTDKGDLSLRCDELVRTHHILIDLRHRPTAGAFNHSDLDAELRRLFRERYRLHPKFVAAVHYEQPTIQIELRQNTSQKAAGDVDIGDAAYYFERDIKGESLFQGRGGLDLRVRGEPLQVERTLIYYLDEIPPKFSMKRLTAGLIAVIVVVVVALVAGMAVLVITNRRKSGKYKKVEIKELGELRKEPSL
The test is described as follows: flow cytometry of PKH26-stained BxPC3 and CFSE-stained Jurkat cells, as in Example 9. A general note: Flow cytometry measures light scatter and fluorescence of single cells or particles in a stream.

B1: heterodimeric anti-Trop-2/anti-CD3-scFv bispecific antibody (bispecific antibody)
heavy: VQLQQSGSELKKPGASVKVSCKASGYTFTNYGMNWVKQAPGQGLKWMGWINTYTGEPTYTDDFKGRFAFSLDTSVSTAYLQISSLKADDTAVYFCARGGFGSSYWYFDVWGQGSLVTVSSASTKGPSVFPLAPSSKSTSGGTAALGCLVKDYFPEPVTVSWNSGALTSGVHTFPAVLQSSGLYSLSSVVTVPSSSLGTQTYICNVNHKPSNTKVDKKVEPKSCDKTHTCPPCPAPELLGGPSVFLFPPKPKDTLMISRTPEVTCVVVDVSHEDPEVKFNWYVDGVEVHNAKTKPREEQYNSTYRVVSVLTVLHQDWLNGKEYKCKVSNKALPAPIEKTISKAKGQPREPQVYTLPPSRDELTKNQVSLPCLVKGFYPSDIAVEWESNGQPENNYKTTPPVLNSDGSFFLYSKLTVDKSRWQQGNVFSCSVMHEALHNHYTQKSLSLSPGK
light: DIQLTQSPSSLSASVGDRVSITCKASQDVSIAVAWYQQKPGKAPKLLIYSASYRYTGVPDRFSGSGSGTDFTLTISSLQPEDFAVYYCQQHYITPLTFGAGTKVEIKRTVAAPSVFIFPPSDEQLKSGTASVVCLLNNFYPREAKVQWKVDNALQSGNSQESVTEQDSKDSTYSLSSTLTLSKADYEKHKVYACEVTHQGLSSPVTKSFNRGEC
scFv: not shown
notes: also called anti-Trop2/anti CD3-scFv heterodimer; Anti-Trop-2/CD3 heterodimeric BsAb
For B1, the binding result (in test [1]; in the test with Trop-2 on BxPC3 cells) was “binds” in each case.

Source of the values: patent US20190284299A1 (BEIJING HANMI PHARMACEUTICAL, published 2019).
